Experiments:
[1] = biological target: Im7-D1a (D1 a-loop fused to Im7) (Thermosynechococcus elongatus, UniProt P0A444 54-113); assay: SPR
[2] = biological target: Im7-D2 (C-terminal domain of D2 fused to Im7) (Thermosynechococcus elongatus, UniProt Q8CM25 289-352); assay: SPR
Sequence of Im7-D2 (C-terminal domain of D2 fused to Im7) (Q8CM25 289-352): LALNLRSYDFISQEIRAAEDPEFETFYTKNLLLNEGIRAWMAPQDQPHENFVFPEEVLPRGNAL

Sequence of Im7-D1a (D1 a-loop fused to Im7) (P0A444 54-113): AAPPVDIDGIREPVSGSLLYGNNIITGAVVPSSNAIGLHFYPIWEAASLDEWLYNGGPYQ

- Kd [1]: ~60 µM
- Kd [2]: ~41 µM
B1: PsbO (natural protein)
chain: AKQTLTYDDIVGTGLANKCPTLDDTARGAYPIDSSQTYRIARLCLQPTTFLVKEEPKNKRQEAEFVPTKLVTRETTSLDQIQGELKVNSDGSLTFVEEDGIDFQPVTVQMAGGERIPLLFTVKNLVASTQPNVTSITTSTDFKGEFNVPSYRTANFLDPKGRGLASGYDSAIALPQAKEEELARANVKRFSLTKGQISLNVAKVDGRTGEIAGTFESEQLSDDDMGAHEPHEVKIQGVFYASIEPA

From article PMC4220643 (2014)
